Measurements: US20250263778A1 (Hoffmann-La Roche, published 2025)
Where a chain is given by its changes, count along the chain named. Where two headings read alike, the source gives them in different places.

B1: BCC.763 (antibody, V domains shown)
VH: CQSVEESGGRLVTPGTPLTLTCTASGFSLSSYNMNWVRQAPGKGLEWIGYINKGGSAYYASWAKGRFTISRTSTTVDLKMTSPTTEDTATYFCVRSGGGGNLNLWGQGTLVTVSS
VL: AAVLTQTPSPVSAAVGGTVTISCQSSPNILGNYLSWFQQKPGQPPKLLIYYTSTLASGVPSRFKGSGSGTQFTLTISDVQCDDAATYYCLGVYRSDSDNVFGGGTEVVVK
notes: Rabbit IgG, kappa; also called antibody 763
B2: BCC.763-1 (antibody, V domains shown)
VH: B1 VH with T85P
VL: B1 VL
notes: recombinant rabbit IgG, kappa; Positions are Wolfguy indices, not positions on the entry; tie inferred
B3: BCC.763-2 (antibody, V domains shown)
VH: B1 VH with E46A, R71K
VL: B1 VL
notes: recombinant rabbit IgG, kappa; Positions are Wolfguy indices; tie inferred; also called VH variant 2103:7194:16368 1:N:0:1
B4: BCC.763-4 (antibody, V domains shown)
VH: B1 VH with Y59D, S61N, T85P
VL: B1 VL
notes: recombinant rabbit IgG, kappa; Positions are Wolfguy indices; tie inferred; copies: 2 + 2

Columns and labels:
[1] = target: T1, murine LRP8, biotinylated (murine, UniProt Q924X6 29-858, limits assumed, biotinylated); assay: ELISA, biotinylated murine LRP8
T1 construct: also called mu-antigen; murine antigen

[2] = target: T1, murine LRP8, biotinylated; assay: ELISA, biotinylated murine LRP8; remark: listed apart in the source
[3] = target: T2, human LRP8 (Low-density lipoprotein receptor-related protein 8), biotinylated (human, UniProt Q14114 33-826, limits assumed, biotinylated); assay: ELISA, biotinylated human LRP8
T2 construct: also called hu-antigen; human antigen

[4] = target: T2, human LRP8 (Low-density lipoprotein …); assay: ELISA, biotinylated human LRP8; remark: listed apart in the source
Method: The antigen, biotinylated human LRP8, was incubated with 5 μL sample containing the anti-LRP8 antibody at a concentration of 250 ng/mL in a total volume of 25 μL in PBS, 0.5% BSA and 0.05% Tween in a 384 w microtiterplate (Maxisorb (with Streptavidin, Nunc). After 1.5 hrs. incubation at 25° C. unbound antibody was removed by washing 6 times with 90 μL PBS (dispense and aspiration). The antigen-antibody complex was detected by an anti-rabbit antibody conjugated to POD (ECL anti-rabbit IgG-POD, Cat. No. NA9340V; POD=peroxidase). 20-30 min after adding 35 μL POD-substrate 3,3′,5,5′-tetramethyl benzidine (TMB; Piercenet, Cat. No. 34021) the optical density was determined at 370 nm. The EC₅₀ value was calculated with a four parameter logistic model using GraphPad Prism 6.0 software.

T2 sequence (Q14114 33-826 limits assumed): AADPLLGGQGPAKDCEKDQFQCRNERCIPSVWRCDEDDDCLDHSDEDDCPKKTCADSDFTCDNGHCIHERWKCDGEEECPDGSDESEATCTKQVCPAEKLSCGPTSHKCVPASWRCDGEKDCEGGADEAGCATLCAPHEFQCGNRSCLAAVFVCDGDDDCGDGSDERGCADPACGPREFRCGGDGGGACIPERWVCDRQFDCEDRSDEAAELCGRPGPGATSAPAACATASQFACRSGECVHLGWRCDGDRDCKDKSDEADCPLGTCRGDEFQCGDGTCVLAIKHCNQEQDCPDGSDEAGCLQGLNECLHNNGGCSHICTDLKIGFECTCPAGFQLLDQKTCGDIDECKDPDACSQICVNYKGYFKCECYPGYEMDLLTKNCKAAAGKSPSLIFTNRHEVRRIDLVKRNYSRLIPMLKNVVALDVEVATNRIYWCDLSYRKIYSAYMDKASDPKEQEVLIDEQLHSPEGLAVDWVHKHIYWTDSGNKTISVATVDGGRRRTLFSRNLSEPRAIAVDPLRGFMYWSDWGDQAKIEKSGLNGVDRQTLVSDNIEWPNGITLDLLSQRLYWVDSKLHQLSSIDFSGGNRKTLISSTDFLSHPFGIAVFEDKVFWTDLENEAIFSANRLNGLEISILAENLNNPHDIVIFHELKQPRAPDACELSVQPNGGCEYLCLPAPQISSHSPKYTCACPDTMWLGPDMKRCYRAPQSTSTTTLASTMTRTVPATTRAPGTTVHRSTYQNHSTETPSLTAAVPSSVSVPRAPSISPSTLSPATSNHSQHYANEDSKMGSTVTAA
T1 sequence (Q924X6 29-858 limits assumed): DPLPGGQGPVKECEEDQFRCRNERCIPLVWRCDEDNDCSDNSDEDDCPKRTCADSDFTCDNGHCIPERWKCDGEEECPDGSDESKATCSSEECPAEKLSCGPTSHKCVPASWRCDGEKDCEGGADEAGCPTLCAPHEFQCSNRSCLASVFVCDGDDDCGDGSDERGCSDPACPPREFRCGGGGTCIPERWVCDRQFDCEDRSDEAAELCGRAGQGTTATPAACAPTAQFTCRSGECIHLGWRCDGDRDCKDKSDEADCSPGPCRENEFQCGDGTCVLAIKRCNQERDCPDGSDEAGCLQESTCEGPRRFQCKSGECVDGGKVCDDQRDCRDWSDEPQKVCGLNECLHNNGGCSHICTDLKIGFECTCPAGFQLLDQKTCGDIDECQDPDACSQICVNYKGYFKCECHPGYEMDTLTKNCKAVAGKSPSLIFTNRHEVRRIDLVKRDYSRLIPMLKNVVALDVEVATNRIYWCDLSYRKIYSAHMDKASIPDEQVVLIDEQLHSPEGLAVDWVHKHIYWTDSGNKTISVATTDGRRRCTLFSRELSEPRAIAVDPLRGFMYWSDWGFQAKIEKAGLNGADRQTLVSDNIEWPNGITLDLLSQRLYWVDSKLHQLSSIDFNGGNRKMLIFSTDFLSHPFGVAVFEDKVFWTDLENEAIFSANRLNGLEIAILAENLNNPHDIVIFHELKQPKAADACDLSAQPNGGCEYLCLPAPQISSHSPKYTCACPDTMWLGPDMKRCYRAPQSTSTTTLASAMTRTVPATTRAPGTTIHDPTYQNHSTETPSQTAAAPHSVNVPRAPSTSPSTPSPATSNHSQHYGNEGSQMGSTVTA

Binder | EC50 [1] | EC50 [2] | EC50 [3] | EC50 [4]
B1 | < 0.02 µg/mL | < 0.02 µg/mL | < 0.02 µg/mL | < 0.02 µg/mL
B2 | < 0.02 µg/mL |  | < 0.02 µg/mL | 
B3 | < 0.02 µg/mL |  | < 0.02 µg/mL | 
B4 | < 0.02 µg/mL |  | < 0.05 µg/mL | 
